Values quoted from earlier work, collected in publication PMC3694163.
pKd: −log10 of the molar value.

Legend:
IGFBP6 (Homo sapiens) = IGFBP6 (Homo sapiens) (UniProt P24592)
IR (Homo sapiens) = IR (Homo sapiens) (UniProt P06213)

Sequence of IGFBP6 (Homo sapiens) (P24592 28-240): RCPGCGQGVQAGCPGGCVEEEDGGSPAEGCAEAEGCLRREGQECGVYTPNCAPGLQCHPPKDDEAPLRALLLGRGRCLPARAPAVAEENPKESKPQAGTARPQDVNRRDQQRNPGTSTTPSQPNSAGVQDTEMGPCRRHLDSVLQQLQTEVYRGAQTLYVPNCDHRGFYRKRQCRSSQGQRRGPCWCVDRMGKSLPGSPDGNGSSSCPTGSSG
Sequence of insulin (P01308 90-110): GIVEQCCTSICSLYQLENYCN

pKd (IGFBP6 (Homo sapiens)) | pKd (IR (Homo sapiens)) | Substance
8.24 | – | IGF-II (from UniProt P01344)
– | 10.00 | insulin (from UniProt P01308)
